PMC5142293, “Characterization of spermidine hydroxycinnamoyl transferases from eggplant (Solanum melongena L.) and its wild relative Solanum richardii Dunal” (Horticulture Research, 2016)
Changes are numbered by the printed parent chain. Numbers in names are those of the source.

Experiments:
Assay in all cases: spectrophotometric acylation assay, microplate (absorbance loss of CoA ester)
Conditions in all cases: 2.5 mM polyamine acceptor (text b49: spermidine; table title and b21: spermine), pH 9.0, 30 °C, Tris-HCl, 10 mM EDTA
[1] = substrate: CC(C)(COP(=O)(O)OP(=O)(O)OC[C@H]1O[C@@H](n2cnc3c(N)ncnc32)[C@H](O)[C@@H]1OP(=O)(O)O)[C@@H](O)C(=O)NCCC(=O)NCCSC(=O)/C=C/c1ccc(O)c(O)c1; type: biochemical, Solanum virginianum
Excerpt: (§1) spectrophotometric acylation assay, microplate (absorbance loss of CoA ester) on SmSHT

[2] = substrate: CC(C)(COP(=O)(O)OP(=O)(O)OC[C@H]1O[C@@H](n2cnc3c(N)ncnc32)[C@H](O)[C@@H]1OP(=O)(O)O)[C@@H](O)C(=O)NCCC(=O)NCCSC(=O)/C=C/c1ccc(O)cc1; type: biochemical, Solanum virginianum
Excerpt: as §1

[3] = substrate: COc1cc(/C=C/C(=O)SCCNC(=O)CCNC(=O)[C@H](O)C(C)(C)COP(=O)(O)OP(=O)(O)OC[C@H]2O[C@@H](n3cnc4c(N)ncnc43)[C@H](O)[C@@H]2OP(=O)(O)O)ccc1O; type: biochemical, Solanum virginianum
Excerpt: as §1

[4] = substrate: CC(C)(COP(=O)(O)OP(=O)(O)OC[C@H]1O[C@@H](n2cnc3c(N)ncnc32)[C@H](O)[C@@H]1OP(=O)(O)O)[C@@H](O)C(=O)NCCC(=O)NCCSC(=O)/C=C/c1ccc(O)c(O)c1; type: biochemical, Solanum richardii
Excerpt: (§2) spectrophotometric acylation assay, microplate (absorbance loss of CoA ester) on SrSHT

[5] = substrate: CC(C)(COP(=O)(O)OP(=O)(O)OC[C@H]1O[C@@H](n2cnc3c(N)ncnc32)[C@H](O)[C@@H]1OP(=O)(O)O)[C@@H](O)C(=O)NCCC(=O)NCCSC(=O)/C=C/c1ccc(O)cc1; type: biochemical, Solanum richardii
Excerpt: as §2

[6] = substrate: COc1cc(/C=C/C(=O)SCCNC(=O)CCNC(=O)[C@H](O)C(C)(C)COP(=O)(O)OP(=O)(O)OC[C@H]2O[C@@H](n3cnc4c(N)ncnc43)[C@H](O)[C@@H]2OP(=O)(O)O)ccc1O; type: biochemical, Solanum richardii
Excerpt: as §2

B1: SmSHT (Solanum virginianum) (protein)
chain: MKVILKNHWVVKPAAPTWTGTVSLSEFDQTFAVTHVPTIYYYKFVQDFITSTDEIIKTLKTSLSEALVHFYPLAGRLRWISGSRLELECDASGVVLTEAETDAKLDDLDSFLLSPNYNSLFPRVDYTIPIDELPLLFVQLTKFQCGGIALSFAISHAVVDGHSALYFFSEWARLSRGEPLMFAPFHDRKVLRAGEPAIACPTFEHLQFNTPPLLIGKSSTENEKKKETKGSMLKLTKLQVEMLREKANQGRNLEDSRERSYTRYEVVTAHIWRCACKARGHKFEQPTNLCICVDIRRRMDPPLPSSYFGNAIVDVIATGASGDIVLSPLECAAKRVREAIKMVTSDYANSTINFLKKEEDLSKYQDIHAFRNKEGPFYGNPNLGVISWISLPVLGLDFGWGKEFHMSPGIHEYDGDCVILPDNEGDGSLTVAIVLQEAHVDAFKKFFYEDIEC
notes: full-length ORF, 453 residues, pET-32a(+) N-terminal His-tag (73 kDa with tag, 51 kDa predicted), E. coli, Ni-NTA purified
With B1 the Km [1] was 58.3 ± 1.7 µM, the kcat [1] was 7.36 ± 0.185 s⁻¹ and the kcat/Km [1] was 127000 ± 3330 M⁻¹ s⁻¹. It also gave a Km [2] of 29.6 ± 5.8 µM, a kcat [2] of 3.02 ± 0.122 s⁻¹ and a kcat/Km [2] of 102000 ± 3330 M⁻¹ s⁻¹. The Km [3] was 27.3 ± 5.6 µM, the kcat [3] was 3.87 ± 0.205 s⁻¹ and the kcat/Km [3] was 142000 ± 8330 M⁻¹ s⁻¹.

B2: SrSHT (Solanum richardii) (protein)
chain: B1 chain with C200S, P286S, R297K, L326S, K402E
notes: full-length ORF, 453 residues, pET-32a(+) N-terminal His-tag (73 kDa with tag, 51 kDa predicted), E. coli, Ni-NTA purified; natural ortholog differing from SmSHT by C200S, P286S, R297K, L326S, K402E
In the case of B2, the Km [4] is reported as 67.1 ± 7.6 µM, the kcat [4] is reported as 10.1 ± 0.483 s⁻¹ and the kcat/Km [4] is reported as 150000 ± 6670 M⁻¹ s⁻¹. The Km [5] was 38.4 ± 3.3 µM, the kcat [5] was 4.33 ± 0.243 s⁻¹ and the kcat/Km [5] was 113000 ± 6670 M⁻¹ s⁻¹. The Km [6] was 51.3 ± 10.6 µM, the kcat [6] was 6.88 ± 1 s⁻¹ and the kcat/Km [6] was 133000 ± 20000 M⁻¹ s⁻¹.
